The text below walks through data of article PMC13006735.

Where two headings read alike, the source gives them in different places.

The target in assay [1] is Ebola virus (EBOV, Zaire) glycoprotein GP, wild type (Ebola virus (EBOV, Zaire)) (UniProt Q05320).
Assay [2] has as its target Sudan virus (SUDV) glycoprotein GP (Sudan virus (SUDV)) (UniProt Q7T9D9).
The target is the same in assay [3]. The source holds these as a separate data set.

In assay [1], “A50Y/S52Y/L54R-LC (ADI-15946 light chain triple mutant) (antibody)” yielded an IC50, neutralisation of EBOV GP pseudovirus (luciferase, Huh7 cells) of 0.15 µg/mL and an IC90, neutralisation of EBOV GP pseudovirus (luciferase, Huh7 cells) of 1.1 µg/mL.

With ADI-15878 (antibody), the IC90, neutralisation of SUDV GP pseudovirus (luciferase, Huh7 cells) in assay [2] stood at 0.3 µg/mL; in assay [3] it was 0.9 µg/mL. For the same substance, the IC50, neutralisation of SUDV GP pseudovirus (luciferase, Huh7 cells) in assay [3] is 0.04 µg/mL.

As for “H27Q/S52Y/G66R-LC (ADI-15946 light chain triple mutant) (antibody)”, in assay [1], the IC50, neutralisation of EBOV GP pseudovirus (luciferase, Huh7 cells) was found to be 0.15 µg/mL and the IC90, neutralisation of EBOV GP pseudovirus (luciferase, Huh7 cells) worked out at 0.86 µg/mL.
